Data taken from US20220267379A1 (ECOLE POLYTECHNIQUE FEDERALE DE LAUSANNE EPFL, published 2022).
Values belong to the binder of their own block, whether it stands above or below them. Positions of bridges follow the written chain, without caps; N, C: chain ends. Non-standard residues stand in square brackets, D forms with d. Primed or numbered codes have the meaning given here. Chains are numbered I, II in the order given. No end group written: not given here. *: point of attachment. Palmitoyl = CCCCCCCCCCCCCCCC(=O)*; PEG2′ = PEG2 spacer unit

Key:
FXIIa (Factor XIIa) = biological target: T1, FXIIa (Factor XIIa) (human, UniProt P00748 373-615, limits assumed); assay: substrate-based activity assay, off-target selectivity
T1 sequence (looked up): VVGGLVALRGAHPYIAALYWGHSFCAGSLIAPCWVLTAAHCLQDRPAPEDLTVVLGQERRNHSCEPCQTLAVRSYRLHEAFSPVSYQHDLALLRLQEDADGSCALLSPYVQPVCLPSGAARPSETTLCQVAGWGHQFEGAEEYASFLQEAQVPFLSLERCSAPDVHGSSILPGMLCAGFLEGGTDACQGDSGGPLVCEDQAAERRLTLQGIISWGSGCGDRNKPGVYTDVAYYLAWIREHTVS

[1] = biological target: T2, human Kallikrein-related peptidase 5 (hKLK5) (human, UniProt Q9Y337 67-293, limits assumed); assay: substrate-based activity assay in the presence of 25 µM HSA
T2 construct: Active protease used in substrate-based activity assays and immobilized for phage selection; also called stratum corneum tryptic enzyme (SCTE)
Experimental: (§1) (a) Kᵢ values of N- and C-terminal tag conjugates in comparison to unconjugated inhibitors measured by inhibition assays in the presence of HSA. […] All data represent the mean of three measurements ±SD.
(§2) Even though the actual concentration of albumin in human blood is at around 600 μM and thus much higher, a higher albumin concentration in the assay was not possible, as it interfered with the protease activity.

[2] = biological target: T3, human serum albumin (HSA) (human, UniProt P02768 25-609); assay: fluorescence polarization, dilution series of human serum
Experimental: (b) Kd values of conjugates for HSA assessed by fluorescence polarization. A dilution serious of human serum was used. […] All data represent the mean of three measurements ±SD.
Thus, the dissociation constants (Kd) of the molecules for HSA were tested with a fluorescence polarization (FP) assay using the fluorescein moiety in the albumin tag. The fluorescence anisotropy of the molecules in a dilution series of human serum was measured and Kd values were calculated.

[3] = biological target: T4, mouse serum albumin (MSA) (mouse, UniProt P07724 25-608); assay: fluorescence polarization, dilution series of mouse albumin in PBS
T4 construct: also called mouse albumin

[4] = biological target: T3, human serum albumin (HSA); assay: fluorescence polarization
[5] = biological target: T5, human Kallikrein-related peptidase 7 (hKLK7) (human, UniProt P49862 30-253); assay: substrate-based activity assay
T5 construct: Active protease used in substrate-based activity assays and immobilized for phage selection; also called stratum corneum chymotryptic enzyme (SCCE)

[6] = biological target: T5, human Kallikrein-related peptidase 7 …; assay: substrate-based activity assay in the presence of 25 µM HSA
Experimental: as §1, §2

T5 sequence (P49862 30-253 limits assumed): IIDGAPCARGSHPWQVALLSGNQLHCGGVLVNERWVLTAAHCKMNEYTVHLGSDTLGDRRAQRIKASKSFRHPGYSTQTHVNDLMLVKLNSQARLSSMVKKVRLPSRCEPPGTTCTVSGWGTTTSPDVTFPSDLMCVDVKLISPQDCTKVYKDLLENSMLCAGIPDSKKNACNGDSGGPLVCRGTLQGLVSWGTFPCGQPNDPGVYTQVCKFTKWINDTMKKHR
T2 sequence (Q9Y337 67-293 limits assumed): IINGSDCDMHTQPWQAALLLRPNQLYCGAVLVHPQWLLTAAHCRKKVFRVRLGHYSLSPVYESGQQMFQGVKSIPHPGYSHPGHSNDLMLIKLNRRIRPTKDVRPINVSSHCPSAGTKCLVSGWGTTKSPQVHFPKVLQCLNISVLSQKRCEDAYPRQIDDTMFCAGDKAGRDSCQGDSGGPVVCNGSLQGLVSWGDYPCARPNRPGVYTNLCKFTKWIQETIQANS
T4 sequence (P07724 25-608 limits assumed): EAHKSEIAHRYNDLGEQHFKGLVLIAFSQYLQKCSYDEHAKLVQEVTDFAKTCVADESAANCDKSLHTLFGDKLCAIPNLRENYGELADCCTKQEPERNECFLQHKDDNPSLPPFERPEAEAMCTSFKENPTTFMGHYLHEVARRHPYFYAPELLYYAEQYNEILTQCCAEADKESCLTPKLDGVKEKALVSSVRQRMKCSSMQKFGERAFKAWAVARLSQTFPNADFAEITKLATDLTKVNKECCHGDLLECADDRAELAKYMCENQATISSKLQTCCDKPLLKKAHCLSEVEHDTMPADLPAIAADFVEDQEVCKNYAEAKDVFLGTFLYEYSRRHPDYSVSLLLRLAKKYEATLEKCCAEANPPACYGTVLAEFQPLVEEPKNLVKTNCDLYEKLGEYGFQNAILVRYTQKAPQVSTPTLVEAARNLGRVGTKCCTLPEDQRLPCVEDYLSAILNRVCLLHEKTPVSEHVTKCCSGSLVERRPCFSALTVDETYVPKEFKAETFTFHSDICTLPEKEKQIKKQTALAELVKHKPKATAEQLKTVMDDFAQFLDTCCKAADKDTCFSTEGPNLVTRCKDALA

fold weaker than the Ki value for KLK5 (FXIIa (Factor XIIa)): ~4300 fold
Binder: GCTRQYPC (linker 2-8 via 1,3‑dibromoacetone, also called compound 035) [peptide 035 (lead KLK5 inhibitor)]

fold improvement in the Ki value compared to the cyclic peptide alone [1]: 1.8 fold
fold loss in affinity (Kd) for HSA on conjugation [2]: 2.1 fold
binding result [3]: binds
B1: KLK5 inhibitor 035-tag (C-terminal albumin tag conjugate of 035) (peptide)
peptide 1: GCTRQYPCGKG
peptide 2: EYEK(Palmitoyl)EYE
modifications: bridge I:2-I:8; not fully specified (some residues, N-terminus, bridges); also: chain 2 (albumin tag) attached via PEG2 to Lys10 side chain of chain 1 (branched)

binding result [3]: binds
B2: SSSKSSS-tag (peptide)
peptide: SSSK(Palmitoyl)SSS
modifications: also: fluorescein label, position not given here
notes: Tag variant with all Tyr and Glu replaced by Ser; also called tag composed of Ser residues

factor of improvement in HSA affinity over peptide 266 [4]: 4 fold
B3: albumin tag variant peptide 284 (peptide)
peptide: EYEKEYEK
modifications: 2-naphthalenecarboxylic acid cap at the N-terminus (based on peptide 266: on a gamma-coupled glutamic acid, through PEG2); Lys 4 side chain acylated with palmitic acid; additional C-terminal Lys carries 5(6)-carboxyfluorescein on its side chain
notes: also called tag variant 284

fold better activity than peptide 114 [5]: 2 fold
Binder: PCLYLARCS (linker 2-8 via 1,3‑dibromoacetone) [peptide 096 (lead KLK7 inhibitor)]

factor recovered in HSA affinity compared to tag-F [4]: 2 fold
B4: albumin tag variant peptide 263 (peptide)
peptide: EYEKEYEK
modifications: pentanedioic acid appended to the N-terminus through a PEG2 unit; Lys 4 side chain acylated with palmitic acid; additional C-terminal Lys carries 5(6)-carboxyfluorescein on its side chain

fold loss in affinity (Kd) for HSA on conjugation [2]: 2.9 fold
B5: KLK7 inhibitor 096-tag (C-terminal albumin tag conjugate of 096) (peptide)
peptide 1: PCLYLARCSGKG
peptide 2: EYEK(Palmitoyl)EYE
modifications: bridge I:2-I:8; not fully specified (some residues, N-terminus, bridges); also: chain 2 (albumin tag) attached via PEG2 to Lys11 side chain of chain 1 (branched)
notes: Branched molecule

factor of improvement in HSA affinity over peptide 266 [4]: 4 fold
B6: albumin tag variant peptide 282 (peptide)
peptide: EYEKEYEK
modifications: biphenyl-3-carboxylic acid cap at the N-terminus (based on peptide 266: on a gamma-coupled glutamic acid, through PEG2); Lys 4 side chain acylated with palmitic acid; additional C-terminal Lys carries 5(6)-carboxyfluorescein on its side chain
notes: also called tag variant 282

Ki [1]: 23 nM
fold loss in activity compared to the cyclic peptide alone [1]: 10 fold
binding result [2]: binds
B7: N-terminal albumin tag conjugate of KLK5 inhibitor 035 (peptide)
peptide 1: {5(6)‑carboxyfluorescein}-EYEK(Palmitoyl)EYE
peptide 2: GCTRQYPC
modifications: bridge II:2-II:8; not fully specified (C-terminus, bridges); also: chain 1 C-terminus joined via PEG2 to N-terminus of chain 2 (one linear molecule)
notes: also called N-terminal conjugate (KLK5)

Ki [6]: 106 nM
fold loss in activity compared to the cyclic peptide alone [6]: 6.6 fold
binding result [2]: binds
B8: N-terminal albumin tag conjugate of KLK7 inhibitor 096 (peptide)
peptide 1: {5(6)‑carboxyfluorescein}-EYEK(Palmitoyl)EYE[PEG2′]
peptide 2: PCLYLARCS
modifications: linker II:2-II:8 via 1,3‑dibromoacetone; also: tag C-terminus joined through PEG2 to inhibitor N-terminus (one linear molecule)
notes: also called N-terminal conjugate (KLK7)

further factor recovered in HSA affinity by the first aromatic ring [4]: 2 fold
B9: albumin tag variant peptide 266 (peptide)
peptide: EYEKEYEK
modifications: benzoic acid coupled to the amine of a gamma-coupled glutamic acid at the N-terminus (through PEG2); Lys 4 side chain acylated with palmitic acid; additional C-terminal Lys carries 5(6)-carboxyfluorescein on its side chain
